We go through 137 variants from the Human Domainome abundance scans (Beltran et al. 2025).

± gives the uncertainty stated by the source.

Sequences and labels used below:
B1: Androgen receptor, residues 557 to 632; numbered along this chain, P10275 (parent)
chain: QKTCLICGDEASGCHYGALTCGSCKVFFKRAAEGKQKYLCASRNDCTIDKFRRKNCPSCRLRKCYEAGMTLGARKL
B2: FERM and PDZ domain-containing protein 4, residues 75 to 154; numbered along this chain, Q14CM0 (parent)
chain: APRKVEMRRDPVLGFGFVAGSEKPVVVRSVTPGGPSEGKLIPGDQIVMINDEPVSAAPRERVIDLVRSCKESILLTVIQP

In one data set the parent is B1. Kind of data set: abundance fitness (aPCA) (normalised: wild type 0, dead -1); higher = more abundant; growth selection in yeast, the domain comes from the species named. To be noted: Homo sapiens.
Take QKTCLICGDEASGCHYGALTCGSCKVFFKRAAEGRQKYLCASRNDCTIDKFRRKNCPSCRLRKCYEAGMTLGARKL [K35R]: the abundance fitness stood at 0.004 ± 0.045.
Still for that read-out and setting: the figure for QKTCLICGDEASGCHYGALTCGSCKVFFKRAAEGKQKYLCASRNDCTIDKFRRKNCPSCRLRKCYEAGMTWGARKL [L71W] is -0.151 ± 0.11; for QKTCLICGDEASGCHYGALTCGSCKVFFKRMAEGKQKYLCASRNDCTIDKFRRKNCPSCRLRKCYEAGMTLGARKL [A31M] it is -0.182 ± 0.082.
Turning to QKTCLICGDEASGWHYGALTCGSCKVFFKRAAEGKQKYLCASRNDCTIDKFRRKNCPSCRLRKCYEAGMTLGARKL [C14W], the abundance fitness is -0.419 ± 0.16.
QKTCLICGDEASGCHYGALTCGSCKVFFKRAAEGKQKYLCASRNDCTIDKFRRKNCPSCRLRKCYEAGMTLTARKL [G72T]: the abundance fitness was -0.056 ± 0.12.
QKTCLICGEEASGCHYGALTCGSCKVFFKRAAEGKQKYLCASRNDCTIDKFRRKNCPSCRLRKCYEAGMTLGARKL [D9E]: the abundance fitness is -0.171 ± 0.085.
Same read-out and setting: the figure for QKTCLICGDEASGCHYGALTCGSCKVFFKRAAEGKQKYLCASRNDCTIDKFRRKNCPSCRLRKCYEAGMTLGAKKL [R74K] is -0.263 ± 0.27; for QKTCLICGDEASGCHYGALTCGSCKVFFKRAAEGKQKYLCASRNDCTGDKFRRKNCPSCRLRKCYEAGMTLGARKL [I48G] it is -0.362 ± 0.03.
In the case of QKTCLICGDEASGCHYGALTCGSCKVFFKRAAEDKQKYLCASRNDCTIDKFRRKNCPSCRLRKCYEAGMTLGARKL [G34D], the abundance fitness is -0.372 ± 0.49.
Same read-out and setting: with QKTCLICGDEASGCAYGALTCGSCKVFFKRAAEGKQKYLCASRNDCTIDKFRRKNCPSCRLRKCYEAGMTLGARKL [H15A] the figure was -0.151 ± 0.078; with QKTCLICGDEASGCDYGALTCGSCKVFFKRAAEGKQKYLCASRNDCTIDKFRRKNCPSCRLRKCYEAGMTLGARKL [H15D], -0.177 ± 0.13.
On to QKTCLICGDEASGCHYGALTCGSCKVFFKRAAEGKQKYLCASRNDITIDKFRRKNCPSCRLRKCYEAGMTLGARKL [C46I], for which the abundance fitness is -0.784 ± 0.13.
As to SKTCLICGDEASGCHYGALTCGSCKVFFKRAAEGKQKYLCASRNDCTIDKFRRKNCPSCRLRKCYEAGMTLGARKL [Q1S], the abundance fitness is -0.058 ± 0.082.
Turning to QKTCPICGDEASGCHYGALTCGSCKVFFKRAAEGKQKYLCASRNDCTIDKFRRKNCPSCRLRKCYEAGMTLGARKL [L5P], the abundance fitness was -0.296 ± 0.071.
On to QKTCLICGDEASGCHYGALTCGSCKVFFKRAAEGKQKYLCASRNDCTIDRFRRKNCPSCRLRKCYEAGMTLGARKL [K50R], for which the abundance fitness is -0.068 ± 0.073.
QKTCLICGDEASGCHYGALTCGSCKVHFKRAAEGKQKYLCASRNDCTIDKFRRKNCPSCRLRKCYEAGMTLGARKL [F27H]: the abundance fitness is -0.805 ± 0.15.

In another data set the parent is B2. The data set is described as above. To be noted: Homo sapiens.
R8Q: the abundance fitness worked out at 0.018 ± 0.043.
Turning to R8G, the abundance fitness is -0.052 ± 0.027.
Still for that read-out and setting: the figure for R8V is -0.038 ± 0.029; for R8H it is -0.058 ± 0.052.
Still for that read-out and setting: with R8L the figure was -0.011 ± 0.028.
Same read-out and setting: with R8M the figure was -0.014 ± 0.042; with R8N, -0.09 ± 0.062.
R8F: the abundance fitness turned out to be 0.013 ± 0.043.
In the case of R8P, the abundance fitness is -0.116 ± 0.048.
Same read-out and setting: the figure for R8A is -0.009 ± 0.032; for R8E it is 0.034 ± 0.038.
For the variant R8I, the abundance fitness is 0.006 ± 0.046.
As for R8S, the abundance fitness is -0.024 ± 0.032.
Consider R8C, for which the abundance fitness is -0.12 ± 0.044.
For the variant R8Y, the abundance fitness is -0.059 ± 0.055.
On to R8D, for which the abundance fitness was 0.029 ± 0.042.
In the case of R8W, the abundance fitness was -0.043 ± 0.033.
As to M7V, the abundance fitness was -0.034 ± 0.021.
Regarding M7D, the abundance fitness was -1.08 ± 0.085.
Consider M7F, for which the abundance fitness is -0.085 ± 0.036.
In the case of M7G, the abundance fitness was -0.877 ± 0.031.
For the variant M7K, the abundance fitness is -1 ± 0.073.
In the case of M7C, the abundance fitness was -0.247 ± 0.032.
As for M7Q, the abundance fitness was -0.937 ± 0.057.
For M7I, the abundance fitness amounted to 0.018 ± 0.033.
Turning to M7T, the abundance fitness is -0.36 ± 0.03.
In the case of M7E, the abundance fitness was -0.918 ± 0.051.
In the case of M7N, the abundance fitness is -1.07 ± 0.11.
Still for that read-out and setting: the figure for M7H is -1.01 ± 0.096; for M7R it is -0.967 ± 0.032.
Same read-out and setting: with M7W the figure was -1.02 ± 0.047.
On to M7Y, for which the abundance fitness is -0.835 ± 0.075.
Regarding M7L, the abundance fitness is 0.04 ± 0.022.
For M7A, the abundance fitness was -0.213 ± 0.024.
Consider M7S, for which the abundance fitness is -0.535 ± 0.027.
On the same count and under the same terms, the figure for F15N is -0.848 ± 0.094.
As for F15W, the abundance fitness was -0.057 ± 0.029.
As for F15I, the abundance fitness was -0.702 ± 0.087.
For F15H, the abundance fitness was -0.828 ± 0.089.
With F15S, the abundance fitness was -0.777 ± 0.035.
Still for that read-out and setting: the figure for F15R is -0.911 ± 0.036; for F15D it is -0.781 ± 0.063; for F15V it is -0.815 ± 0.037.
As for F15L, the abundance fitness was -0.26 ± 0.025.
Take F15M: the abundance fitness was -0.392 ± 0.04.
As for F15Y, the abundance fitness was -0.039 ± 0.043.
As to F15T, the abundance fitness was -0.819 ± 0.053.
As to F15A, the abundance fitness is -0.729 ± 0.034.
Consider F15C, for which the abundance fitness was -0.758 ± 0.061.
The same measure, in the same setting: with F15P the figure was -0.857 ± 0.047; with F15E, -0.805 ± 0.045.
As for F15K, the abundance fitness was -0.905 ± 0.067.
Same read-out and setting: with F15Q the figure was -0.776 ± 0.048; with F17I, -0.322 ± 0.043; with F17D, -0.921 ± 0.077.
For F17G, the abundance fitness was -0.897 ± 0.032.
Same read-out and setting: the figure for F17P is -0.916 ± 0.066; for F17L it is -0.294 ± 0.026; for F17K it is -0.842 ± 0.051.
For F17E, the abundance fitness is -0.832 ± 0.043.
Regarding F17H, the abundance fitness is -0.806 ± 0.074.
The same measure, in the same setting: the figure for F17A is -0.857 ± 0.041.
Turning to F17M, the abundance fitness is -0.381 ± 0.035.
With F17C, the abundance fitness is -0.637 ± 0.044.
The same measure, in the same setting: the figure for F17N is -0.923 ± 0.098; for L13W it is -0.046 ± 0.084.
With L13S, the abundance fitness was -0.013 ± 0.094.
On to L13F, for which the abundance fitness is -0.046 ± 0.17.
L13V: the abundance fitness is -0.003 ± 0.094.
On to A1Q, for which the abundance fitness was -0.704 ± 0.2.
For A1E, the abundance fitness is -0.329 ± 0.037.
As for A1C, the abundance fitness is 0.003 ± 0.064.
With A1G, the abundance fitness was -0.157 ± 0.024.
As for A1D, the abundance fitness was -0.046 ± 0.05.
With A1F, the abundance fitness was -0.199 ± 0.17.
As to A1I, the abundance fitness is 0.122 ± 0.49.
As for A1Y, the abundance fitness is -0.14 ± 0.099.
Still for that read-out and setting: with A1P the figure was -0.734 ± 0.16; with A1M, -0.227 ± 0.084; with A1W, -0.569 ± 0.096.
Regarding A1S, the abundance fitness is -0.207 ± 0.045.
Turning to A1T, the abundance fitness is -0.278 ± 0.045.
With A1V, the abundance fitness is -0.207 ± 0.028.
Same read-out and setting: the figure for D10I is -0.364 ± 0.067; for D10H it is -0.12 ± 0.057.
For D10Y, the abundance fitness is -0.521 ± 0.058.
D10N: the abundance fitness is -0.071 ± 0.044.
As for D10Q, the abundance fitness was -0.32 ± 0.046.
As to D10C, the abundance fitness is -0.138 ± 0.04.
On to D10V, for which the abundance fitness is -0.214 ± 0.03.
As to D10L, the abundance fitness is -0.369 ± 0.034.
As for D10R, the abundance fitness is -0.455 ± 0.031.
In the case of D10W, the abundance fitness was -0.422 ± 0.041.
D10K: the abundance fitness is -0.42 ± 0.063.
Consider D10T, for which the abundance fitness is -0.38 ± 0.043.
Same read-out and setting: the figure for D10F is -0.535 ± 0.062.
Same read-out and setting: with D10E the figure was -0.27 ± 0.037; with D10M, -0.207 ± 0.048; with D10G, -0.591 ± 0.032.
In the case of D10S, the abundance fitness is -0.099 ± 0.032.
As to K4L, the abundance fitness is -0.068 ± 0.31.
Consider K4N, for which the abundance fitness was -0.218 ± 0.28.
For the variant K4S, the abundance fitness is -0.084 ± 0.29.
For the variant K4R, the abundance fitness was determined as 0.114 ± 0.17.
Take R3K: the abundance fitness was -0.036 ± 0.029.
For the variant R3S, the abundance fitness was -0.451 ± 0.026.
With R3H, the abundance fitness is -0.176 ± 0.038.
The same measure, in the same setting: the figure for R3W is -0.769 ± 0.041; for R3C it is -0.985 ± 0.064; for R3T it is -0.338 ± 0.029.
Same read-out and setting: with R3M the figure was -0.188 ± 0.03; with R3E, -0.517 ± 0.032; with R3L, -0.238 ± 0.024.
As for R3Y, the abundance fitness is -0.197 ± 0.038.
Consider R3G, for which the abundance fitness was -0.666 ± 0.025.
R3N: the abundance fitness is -0.299 ± 0.04.
Turning to R3D, the abundance fitness was -0.659 ± 0.045.
As for R3V, the abundance fitness is -0.165 ± 0.022.
As to R3I, the abundance fitness was -0.099 ± 0.035.
R3P: the abundance fitness was -0.937 ± 0.056.
R3F: the abundance fitness was -0.194 ± 0.033.
